From US20140271603A1 (LABORATOIRE FRANCAIS DU FRACTIONNEMENT ET DES …, published 2014)
Residue numbers refer to the chain shown, from its start.

Legend:
[1] = molecular target: T1, C3 convertase of the alternative pathway (C3bBb) formed on C3b-coated wells (UniProt P01024 749-1663; P01024 23-667; P00751 260-764, limits assumed); assay: cell-based or functional assay
[2] = molecular target: T1, C3 convertase of the alternative …; assay: cell-based or functional assay; remark: listed apart in the source

T1 sequence (P01024 749-1663 limits assumed, chain 1 of 3): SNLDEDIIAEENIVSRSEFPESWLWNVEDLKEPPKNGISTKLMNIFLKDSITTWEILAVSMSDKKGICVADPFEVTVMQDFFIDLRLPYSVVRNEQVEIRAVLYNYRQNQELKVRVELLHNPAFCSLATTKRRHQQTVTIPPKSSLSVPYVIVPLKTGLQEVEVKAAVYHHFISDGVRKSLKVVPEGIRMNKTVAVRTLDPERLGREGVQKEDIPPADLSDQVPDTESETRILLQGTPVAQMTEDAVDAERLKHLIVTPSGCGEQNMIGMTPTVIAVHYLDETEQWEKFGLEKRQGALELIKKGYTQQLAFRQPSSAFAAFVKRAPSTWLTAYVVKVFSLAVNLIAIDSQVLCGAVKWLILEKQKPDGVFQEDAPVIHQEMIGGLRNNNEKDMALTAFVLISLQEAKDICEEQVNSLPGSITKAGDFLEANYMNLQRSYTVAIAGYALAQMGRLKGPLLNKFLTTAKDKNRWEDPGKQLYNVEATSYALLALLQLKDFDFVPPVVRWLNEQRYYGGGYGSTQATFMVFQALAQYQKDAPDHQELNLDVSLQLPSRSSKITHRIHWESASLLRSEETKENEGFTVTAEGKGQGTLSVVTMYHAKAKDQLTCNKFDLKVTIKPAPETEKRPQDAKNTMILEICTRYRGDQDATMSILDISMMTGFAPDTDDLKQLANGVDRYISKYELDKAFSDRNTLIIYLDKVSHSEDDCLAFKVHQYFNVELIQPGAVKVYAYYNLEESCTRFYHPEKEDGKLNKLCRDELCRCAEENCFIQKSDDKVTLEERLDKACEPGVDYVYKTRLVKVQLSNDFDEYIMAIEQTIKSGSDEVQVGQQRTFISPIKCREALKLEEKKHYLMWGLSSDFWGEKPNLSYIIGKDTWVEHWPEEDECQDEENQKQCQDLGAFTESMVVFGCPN
T1 sequence (P01024 23-667 limits assumed, chain 2 of 3): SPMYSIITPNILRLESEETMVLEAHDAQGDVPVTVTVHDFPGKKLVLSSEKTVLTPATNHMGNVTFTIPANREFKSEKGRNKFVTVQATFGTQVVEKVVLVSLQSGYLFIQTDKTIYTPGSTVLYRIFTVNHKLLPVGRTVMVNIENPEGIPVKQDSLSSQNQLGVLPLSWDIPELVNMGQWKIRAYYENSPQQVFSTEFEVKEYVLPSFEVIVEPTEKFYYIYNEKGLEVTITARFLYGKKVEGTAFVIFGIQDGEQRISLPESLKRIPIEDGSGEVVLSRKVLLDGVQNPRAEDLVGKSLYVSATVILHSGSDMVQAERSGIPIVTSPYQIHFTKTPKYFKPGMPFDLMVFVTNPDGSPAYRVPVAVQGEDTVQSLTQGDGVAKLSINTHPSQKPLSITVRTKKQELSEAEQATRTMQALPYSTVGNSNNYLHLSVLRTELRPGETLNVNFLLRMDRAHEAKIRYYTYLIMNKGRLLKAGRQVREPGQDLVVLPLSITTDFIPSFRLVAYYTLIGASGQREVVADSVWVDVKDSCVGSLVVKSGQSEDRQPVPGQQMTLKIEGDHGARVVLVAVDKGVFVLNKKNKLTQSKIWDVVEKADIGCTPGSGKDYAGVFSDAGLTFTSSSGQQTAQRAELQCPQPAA
T1 sequence (P00751 260-764 limits assumed, chain 3 of 3): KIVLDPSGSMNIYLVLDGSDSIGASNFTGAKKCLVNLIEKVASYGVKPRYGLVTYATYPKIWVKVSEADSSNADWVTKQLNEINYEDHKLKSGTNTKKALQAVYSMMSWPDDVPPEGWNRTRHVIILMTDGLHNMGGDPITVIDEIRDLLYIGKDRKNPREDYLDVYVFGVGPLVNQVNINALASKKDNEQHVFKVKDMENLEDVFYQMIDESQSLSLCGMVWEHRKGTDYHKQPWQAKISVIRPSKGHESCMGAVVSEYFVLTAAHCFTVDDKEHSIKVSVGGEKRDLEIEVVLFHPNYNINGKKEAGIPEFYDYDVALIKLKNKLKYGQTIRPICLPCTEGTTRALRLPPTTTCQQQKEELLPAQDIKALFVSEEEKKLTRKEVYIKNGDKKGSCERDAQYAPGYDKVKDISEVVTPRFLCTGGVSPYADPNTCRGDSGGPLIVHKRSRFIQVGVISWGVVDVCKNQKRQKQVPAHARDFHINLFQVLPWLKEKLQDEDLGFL

B1: recombinant human factor H, H402 variant, produced in the HEK 293F cell line (other)
chain: EDCNELPPRRNTEILTGSWSDQTYPEGTQAIYKCRPGYRSLGNVIMVCRKGEWVALNPLRKCQKRPCGHPGDTPFGTFTLTGGNVFEYGVKAVYTCNEGYQLLGEINYRECDTDGWTNDIPICEVVKCLPVTAPENGKIVSSAMEPDREYHFGQAVRFVCNSGYKIEGDEEMHCSDDGFWSKEKPKCVEISCKSPDVINGSPISQKIIYKENERFQYKCNMGYEYSERGDAVCTESGWRPLPSCEEKSCDNPYIPNGDYSPLRIKHRTGDEITYQCRNGFYPATRGNTAKCTSTGWIPAPRCTLKPCDYPDIKHGGLYHENMRRPYFPVAVGKYYSYYCDEHFETPSGSYWDHIHCTQDGWSPAVPCLRKCYFPYLENGYNQNHGRKFVQGKSIDVACHPGYALPKAQTTVTCMENGWSPTPRCIRVKTCSKSSIDIENGFISESQYTYALKEKAKYQCKLGYVTADGETSGSITCGKDGWSAQPTCIKSCDIPVFMNARTKNDFTWFKLNDTLDYECHDGYESNTGSTTGSIVCGYNGWSDLPICYERECELPKIDVHLVPDRKKDQYKVGEVLKFSCKPGFTIVGPNSVQCYHFGLSPDLPICKEQVQSCGPPPELLNGNVKEKTKEEYGHSEVVEYYCNPRFLMKGPNKIQCVDGEWTTLPVCIVEESTCGDIPELEHGWAQLSSPPYYYGDSVEFNCSESFTMIGHRSITCIHGVWTQLPQCVAIDKLKKCKSSNLIILEEHLKNKKEFDHNSNIRYRCRGKEGWIHTVCINGRWDPEVNCSMAQIQLCPPPPQIPNSHNMTTTLNYRDGEKVSVLCQENYLIQEGEEITCKDGRWQSIPLCVEKIPCSQPPQIEHGTINSSRSSQESYAHGTKLSYTCEGGFRISEENETTCYMGKWSSPPQCEGLPCKSPPEISHGVVAHMSDSYQYGEEVTYKCFEGFGIDGPAIAKCLGEKWSHPPSCIKTDCLSLPSFENAIPMGEKKDVYKAGEQVTYTCATYYKMDGASNVTCINSRWTGRPTCRDTSCVNPPTVQNAYIVSRQMSKYPSGERVRYQCRSPYEMFGDEEVMCLNGNWTEPPQCKDSTGKCGPPPPIDNGDITSFPLSVYAPASSVEYQCQNLYQLEGNKRITCRNGQWSEPPKCLHPCVISREIMENYNIALRWTAKQKLYSRTGESVEFVCKRGYRLSSRSHTLRTTCWDGKLEYPTCAKR
IC50, acceleration of the dissociation of C3 convertase (culture supernatant HEK MD2-H402) [1]: 0.052 µg/mL

B2: recombinant human factor H, Y402 variant, produced in the HEK 293F cell line (other)
chain: B1 chain with H384Y
IC50, acceleration of the dissociation of C3 convertase (sample: Purified FH HEK) [2]: 0.0506 µg/mL
IC50, acceleration of the dissociation of C3 convertase (culture supernatant HEK MD1-Y402) [1]: 0.0538 µg/mL
IC50, acceleration of the dissociation of C3 convertase (culture supernatant HEK MD2-Y402) [1]: 0.0507 µg/mL
IC50, acceleration of the dissociation of C3 convertase (culture supernatant HEK MD3-Y402) [1]: 0.0528 µg/mL

B3: recombinant human factor H, H402 variant, produced in the PER.C6 cell line (other)
chain: B1 chain
IC50, acceleration of the dissociation of C3 convertase (culture supernatant PERC6 MD2-H402) [1]: 0.0546 µg/mL

B4: recombinant human factor H, Y402 variant, produced in the PER.C6 cell line (other)
chain: B1 chain with H384Y
IC50, acceleration of the dissociation of C3 convertase (sample: Purified FH PER.C6) [2]: 0.0451 µg/mL
IC50, acceleration of the dissociation of C3 convertase (culture supernatant PERC6 MD2-Y402) [1]: 0.0487 µg/mL
IC50, acceleration of the dissociation of C3 convertase (culture supernatant PERC6 MD3-Y402) [1]: 0.0559 µg/mL
